Reference: PMC8692609, “Native mass spectrometry identifies the HybG chaperone as carrier of the Fe(CN)2CO group during maturation of E. coli [NiFe]-hydrogenase 2” (Scientific Reports, 2021)

B1: StrepII-tagged HybG (natural protein, E. coli, UniProt P0AAM7 1-82, looked up)
chain: MCIGVPGQVLAVGEDIHQLAQVEVCGIKRDVNIALICEGNPADLLGQWVLVHVGFAMSIIDEDEAKATLDALRQMDYDITSA
modifications: populations with a +26 Da modification on the N-terminal cysteinyl residue, a further +44 Da (CO2) modification, or the Fe(CN)2CO group (+136 Da; only on HybG dissociated from the native HybG-HypD complex)
notes: HybG, HypC-family hydrogenase maturation chaperone of Escherichia coli; the N-terminal residue of the protein is the cysteine that is formally amino acid position 2; Deconvoluted mass of the unmodified tagged protein is printed as 9615 Da; also called StrepII-HybG; native HybG; not shown: StrepII, C-terminal, kept

Tests used:
[1] = target: the molecule itself; experiment: native MS; purified N-terminally His-tagged pre-HybC supplemented with equimolar amounts of StrepII-HybG; 500 mM ammonium acetate pH 6.8; CID-MS/MS of the 16+ complex ion
StrepII-tagged HybG [2] = target: B1; experiment: native MS; isolated StrepII-HybG–HypD complex; 500 mM ammonium acetate pH 6.8, about 10 uM protein, nano-ESI Q-TOF, collision energy 40 V; CID-MS/MS of the 13+ ion at 80 V; details: both partners purified
StrepII-tagged HybG [3] = target: B1; experiment: native MS; purified N-terminally His-tagged pre-HybC supplemented with equimolar amounts of StrepII-HybG; 500 mM ammonium acetate pH 6.8; CID-MS/MS of the 16+ complex ion; details: both partners purified

Binder	stoichiometry N [1]	stoichiometry N (StrepII-tagged HybG [2])	stoichiometry N (StrepII-tagged HybG [3])
B1	2	–	–
HypD (natural protein, E. coli, UniProt P24192 1-373, looked up, HypD, iron-sulfur cluster-containing hydrogenase maturation protein of Escherichia coli; untagged; Carries a 4Fe-4S cluster; Untagged unless stated otherwise; also called HypD scaffold protein) MRFVDEYRAPEQVMQLIEHLRERASHLSYTAERPLRIMEVCGGHTHAIFKFGLDQLLPENVEFIHGPGCPVCVLPMGRIDTCVEIASHPEVIFCTFGDAMRVPGKQGSLLQAKARGADVRIVYSPMDALKLAQENPTRKVVFFGLGFETTMPTTAITLQQAKARDVQNFYFFCQHITLIPTLRSLLEQPDNGIDAFLAPGHVSMVIGTDAYNFIASDFHRPLVVAGFEPLDLLQGVVMLVQQKIAAHSKVENQYRRVVPDAGNLLAQQAIADVFCVNGDSEWRGLGVIESSGVHLTPDYQRFDAEAHFRPAPQQVCDDPRARCGEVLTGKCKPHQCPLFGNTCNPQTAFGALMVSSEGACAAWYQYRQQESEA	–	1 HybG:HypD	–
N-terminally His-tagged pre-HybC (natural protein, E. coli, UniProt P0ACE0 1-567, looked up, HybC, large (catalytic) subunit of hydrogenase 2 of Escherichia coli, as the immature precursor that still has the C-terminal peptide removed on maturation; also called apo-form of the hydrogenase 2 catalytic subunit; hydrogenase 2 large-subunit precursor; source: E. coli (plasmid pCAN-hybC_(stop)), purified on cobalt-charged TALON Superflow agarose; not shown: His tag, N-terminal, kept) MSQRITIDPVTRIEGHLRIDCEIENGVVSKAWASGTMWRGMEEIVKNRDPRDAWMIVQRICGVCTTTHALSSVRAAESALNIDVPVNAQYIRNIILAAHTTHDHIVHFYQLSALDWVDITSALQADPTKASEMLKGVSTWHLNSPEEFTKVQNKIKDLVASGQLGIFANGYWGHPAMKLPPEVNLIAVAHYLQALECQRDANRVVALLGGKTPHIQNLAVGGVANPINLDGLGVLNLERLMYIKSFIDKLSDFVEQVYKVDTAVIAAFYPEWLTRGKGAVNYLSVPEFPTDSKNGSFLFPGGYIENADLSSYRPITSHSDEYLIKGIQESAKHSWYKDEAPQAPWEGTTIPAYDGWSDDGKYSWVKSPTFYGKTVEVGPLANMLVKLAAGRESTQNKLNEIVAIYQKLTGNTLEVAQLHSTLGRIIGRTVHCCELQDILQNQYSALITNIGKGDHTTFVKPNIPATGEFKGVGFLEAPRGMLSHWMVIKDGIISNYQAVVPSTWNSGPRNFNDDVGPYEQSLVGTPVADPNKPLEVVRTIHSFDPCMACAVHVVDADGNEVVSVKVL	2	–	1 HybG:pre-HybC
